This note sets out measurements from patent US20250368978A1, “SQUALENE HOPENE CYCLASE VARIANTS FOR PRODUCING SCLAREOLIDE” (INTERNATIONAL FLAVORS & FRAGRANCES INC., priority 2022, published 2025).

B1: V45L + Q54E + Q178S + V222R + 1278T + T326S: GmSHC variant with these substitutions relative to SEQ ID NO: 2 (protein)
chain: MSPADISTKSSSFQRLDNMLPEAVSSACDWLIDQQKPDGHWVGPLESNACMEAEWCLALWFLGQEDHPLRPRLAQALLEMQREDGSWGIYVGADHGDINTTVEAYAALRSMGYAADMPIMAKSAAWIQQKGGLRNVRVFTRYWLALIGEWPWDKTPNLPPEIIWLPDNFIFSIYNFASWARATMMPLTILSARRPSRPLLPENRLDGLFPEGRENFDYELPRKGEEDLWGRFFRAADKGLHSLQSFPVRRFVPREAAIRHVIEWIIRHQDADGGWGGTQPPWIYGLMALSVEGYPLHHPVLAKAMDALNDPGWRRDKGDASWIQASNSPVWDTMLAVLALHDAGAEDRYSPQMDKAIGWLLDRQVRVKGDWSIKLPDTEPGGWAFEYANDKYPDTDDTAVALIALAGCRHRPEWRERDIEGAISRGVNWLLAMQSSSGGWGAFDKDNNRSILTKIPFCDFGEALDPPSVDVTAHVLEAFGLLGISRNHPSVQKALAYIRSEQERNGAWFGRWGVNYVYGTGAVLPALAAIGEDMTQPYIVRACDWLMSVQQENGGWGESCASYMDINAVGHGVATASQTAWALIGLLAAKRPKDREAIARGCQFLIERQEDGSWTEEEYTGTGFPGYGVGQAIKLDDPSLPDRLLQGAELSRAFMLRYDLYRQYFPVMALSRARRMMKEDASAAA
modifications: Gluconobacter morbifer
B2: V45L + Q54E + V222Q + R249R + I278T + T326S + A683E: GmSHC variant with these substitutions relative to SEQ ID NO: 2 (protein)
chain: B1 chain with S178Q, R222Q, A683E
modifications: Gluconobacter morbifer
B3: V45L + Q54E + Q178S + V222K + I278S + T326S: GmSHC variant with these substitutions relative to SEQ ID NO: 2 (protein)
chain: B1 chain with R222K, T278S
modifications: Gluconobacter morbifer
B4: V45L + Q54E + V222R + I278T + T326S + R348R: GmSHC variant with these substitutions relative to SEQ ID NO: 2 (protein)
chain: B1 chain with S178Q
modifications: Gluconobacter morbifer
B5: V45L + Q54E + V222Q + Y284W + R249R + 1278T + T326S: GmSHC variant with these substitutions relative to SEQ ID NO: 2 (protein)
chain: B1 chain with S178Q, R222Q, Y284W
modifications: Gluconobacter morbifer
B6: Q178S: GmSHC mutation Q178S selected by site-saturation mutagenesis (protein)
chain: B1 chain with L45V, E54Q, R222V, T278I, S326T
modifications: Gluconobacter morbifer
notes: GmSHC mutation Q178S selected by site-saturation mutagenesis
B7: M184T: GmSHC mutant M184T from site saturation mutagenesis (protein)
chain: B1 chain with L45V, E54Q, S178Q, M184T, R222V, T278I, S326T
modifications: Gluconobacter morbifer
notes: GmSHC mutant M184T from site saturation mutagenesis
B8: Y284W: GmSHC variant Y284W from site saturation mutagenesis (protein)
chain: B1 chain with L45V, E54Q, S178Q, R222V, T278I, Y284W, S326T
B9: A683E: GmSHC mutation A683E in the C-terminal domain (protein)
chain: B1 chain with L45V, E54Q, S178Q, R222V, T278I, S326T, A683E
modifications: Gluconobacter morbifer
notes: GmSHC mutation A683E in the C-terminal domain

Substitutions are numbered along the chain they refer to. Numbers in names are those of the source.

One assay can be described thus: SHC variant screening reactions: conversion of HFA to sclareolide by freeze-dried whole cells, GC analysis. Conditions: 20 mg/mL HFA, 50% enzyme loading; relative to initial mutant. Format: biochemical, Gluconobacter morbifer. On the procedure: SHC Variant Enzyme Expression. Wild-type and the GmSHC variants of Table 5 were individually cloned into pET28a(+). These DNA constructs were transformed into Lemo21 (DE3) E. coli and plated onto agar plates containing Kanamycin. These were incubated overnight at 37° C. A single bacterial colony was picked and used to inoculate 10 mL LB+Kanamycin in a 50 mL falcon tube. This primary culture was incubated overnight at 37° C. with agitation. These cultures (10 mL) were used to inoculate 1L LB+Kanamycin in a shake flask, which was subsequently incubated at 37° C. at 180 rpm for about 4 hours. Protein expression was then induced with the addition of 0.4 mM IPTG and 0.2 mM L-rhamnose. The incubator temperature was lowered to 25° C. and the cultures further incubated at 180 rpm overnight. The next day, the cultures were centrifuged at 4000 rpm for 10 minutes and the supernatant discarded. Cell pellets were resuspended in 0.1 M Potassium phosphate buffer pH 7.4 and exposed to 1 round of freeze/thawing before lyophilization and then use in the reaction assay.
SHC Variant Screening Reactions. Sodium citrate buffer 0.2 M, pH 5 was prepared and 500 μL of this buffer was added to freeze-dried whole cells of each variant (from 1 L shake flask fermentation of E. coli transformed with desired variant plasmid). The results were obtained with an enzyme loading of 50% (w/w). Subsequently, HFA (20 mg/mL) was added to the buffer/enzyme mix. The reactions were incubated at 25° C. with agitation for 72 hours. To stop the reaction and extract the products, a 2X volume of 3:2, heptane: isopropanol was added to each reaction. These were then incubated at 37° C. for 30 minutes with agitation to mix thoroughly. The reactions were centrifuged for 10 minutes at 4000 rpm to pellet any cellular material. The upper organic layer was then removed and placed in a clean gas chromatography (GC) vial.
GC Analysis Method. A GC analytical method was used to detect each of the starting materials and products used in the screening reactions. Due to the volume of samples generated, a fast method was developed with a run time of only 4.5 minutes.
No metal ions were included in the reaction.
Further analysis was conducted to identify one or more optimal SHC enzymes. In particular, substrate loading was increased to 20 mg/mL and incubation with a reduced enzyme loading (50%).
In the case of B1, the “Fold improvements (sclareolide production)” value turned out to be 43.8 Fold.
Same read-out and setting: the value for B2 was 44.6 Fold; that for B3 was 37.3 Fold; that for B4 was 60 Fold.
On the same count and under the same terms, the value for B5 was 46.2 Fold.

The nature of a further assay: Effect of single mutations of GmSHC on activity (site saturation mutagenesis / summary of variants). In kind it is biochemical, Gluconobacter morbifer. The conditions noted are these: single position in GmSHC, SEQ ID NO: 2 numbering. From the text: Three different approaches were taken to generate SHC variants: rational mutagenesis (site-directed mutagenesis), semi-rational mutagenesis (via site-saturation library), and random mutagenesis (error prone PCR). Variants were expressed in a heterologous system and screened by GC.
To improve the conversion of HFA to sclareolide, GmSHC was mutated at one or more of the residues at position 45, 54, 178, 184, 222, 278, 284, 326, 348, 574 and 683 of SEQ ID NO: 2. Silent mutations at positions 249, 348, and 574 identified in an error prone library, were also introduced in the GmSHC of SEQ ID NO: 2.
For B6, the “effect of mutation on activity” value is “improving activity”.
The same measure, in the same setting: the value for B7 was “increase in activity”; that for B8 was “increases activity”; that for B9 was “positive effect on activity”.
